Molecular target: the molecule itself
Assay: SDS-PAGE, reducing (60 KD) against non-reducing (120 KD)
Method: The two protein peaks (6 and 7) with OCIF activity were subjected to SDS-polyacrylamide gel electrophoresis under reducing and non-reducing conditions. Briefly, 20 μl of each peak fraction was concentrated under vacuum and dissolved in 1.5 μl of 10 mM Tris-HCl, pH 8, 1 mM EDTA, 2.5% SDS, 0.01% bromophenol blue, and incubated at 37° C. overnight under non-reducing conditions or under reducing conditions (with 5% of 2-mercaptoethanol). Each 1.0 μl of sample was then analyzed by SDS-polyacrylamide gel electrophoresis with a gradient gel of 10-15% acrylamide (Pharmacia Co.) and an electrophoresis-device (Fast System, Pharmacia Co.). The following molecular weight marker proteins were used to calculate molecular weight:phosphorylase b (94 kD), bovine serum albumin (67 kD), ovalbumin (43 kD), carbonic anhydrase (30 kD), trypsin inhibitor (20.0 kD), and lactalbumin (14.4 kD). After electrophoresis, protein bands were visualized by silver stain using Phast Silver Stain Kit.

B1: osteoclastogenesis inhibitory factor (OCIF), natural, purified from conditioned medium of human fibroblast IMR-90 (other)
chain: ETFPPKYLHYDEETSHQLLCDKCPPGTYLKQHCTAKWKTVCAPCPDHYYTDSWHTSDECLYCSPVCKELQYVKQECNRTHNRVCECKEGRYLEIEFCLKHRSCPPGFGVVQAGTPERNTVCKRCPDGFFSNETSSKAPCRKHTNCSVFGLLLTQKGNATHDNICSGNSESTQKCGIDVTLCEEAFFRFAVPTKFTPNWLSVLVDNLPGTKVNAESVERIKRQHSSQEQTFQLLKLWKHQNKDQDIVKKIIQDIDLCENSVQRHIGHANLTFEQLRSLMESLPGKKVGAEDIEKTIKACKPSDQILKLLSLWRIKNGDQDTLKGLMHALKHSKTYHFPKTVTQSLKKTIRFLHSFTMYKLYQKLFLEMIGNQVQSVKISCL
modifications: N-terminus blocked (the filing says the N-terminal residue may be converted to pyroglutamine); N-linked sugar chains
notes: Secreted glycoprotein found as a 60 kD monomer and a 120 kD homodimer; also called nOCIF; natural OCIF
B1: binds.

— patent publication US20040143859A1 (SANKYO, published 2004)
